Laboratory results published in patent US20100261252A1.

Target: human IgA1 (human) (UniProt P01876)
Assay: cell-based or functional assay

Chain of UniProt P01876 (P01876 other isoform, or with tags, fused parts or gaps): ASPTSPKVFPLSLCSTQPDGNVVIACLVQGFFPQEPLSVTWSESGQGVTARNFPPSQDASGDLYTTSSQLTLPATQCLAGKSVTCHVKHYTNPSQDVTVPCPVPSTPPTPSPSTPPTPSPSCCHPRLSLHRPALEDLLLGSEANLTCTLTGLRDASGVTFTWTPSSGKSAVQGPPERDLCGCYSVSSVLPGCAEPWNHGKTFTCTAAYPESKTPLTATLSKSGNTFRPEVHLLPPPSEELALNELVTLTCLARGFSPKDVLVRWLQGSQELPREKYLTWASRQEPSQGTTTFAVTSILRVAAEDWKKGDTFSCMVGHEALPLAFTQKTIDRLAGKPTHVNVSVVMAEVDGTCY

## C-terminal His-tagged H. influenzae IgA1 protease (proteolytic protease domain, lacking the α protein and β-core domains) (from UniProt P44969 26-1014) (enzyme)
  human IgA1 cleavage activity of purified refolded IgA1 protease (Experion automated electrophoresis) (ng IgA1/uL/min/ng protease): 50
